Laboratory results published in PMC10786891, “Massively parallel profiling of RNA-targeting CRISPR-Cas13d”.

T1: EsCas13d, nuclease-dead (Eubacterium siraeum, UniProt B0MS50, R295A;H300A;R849A;H854A)
T1 sequence: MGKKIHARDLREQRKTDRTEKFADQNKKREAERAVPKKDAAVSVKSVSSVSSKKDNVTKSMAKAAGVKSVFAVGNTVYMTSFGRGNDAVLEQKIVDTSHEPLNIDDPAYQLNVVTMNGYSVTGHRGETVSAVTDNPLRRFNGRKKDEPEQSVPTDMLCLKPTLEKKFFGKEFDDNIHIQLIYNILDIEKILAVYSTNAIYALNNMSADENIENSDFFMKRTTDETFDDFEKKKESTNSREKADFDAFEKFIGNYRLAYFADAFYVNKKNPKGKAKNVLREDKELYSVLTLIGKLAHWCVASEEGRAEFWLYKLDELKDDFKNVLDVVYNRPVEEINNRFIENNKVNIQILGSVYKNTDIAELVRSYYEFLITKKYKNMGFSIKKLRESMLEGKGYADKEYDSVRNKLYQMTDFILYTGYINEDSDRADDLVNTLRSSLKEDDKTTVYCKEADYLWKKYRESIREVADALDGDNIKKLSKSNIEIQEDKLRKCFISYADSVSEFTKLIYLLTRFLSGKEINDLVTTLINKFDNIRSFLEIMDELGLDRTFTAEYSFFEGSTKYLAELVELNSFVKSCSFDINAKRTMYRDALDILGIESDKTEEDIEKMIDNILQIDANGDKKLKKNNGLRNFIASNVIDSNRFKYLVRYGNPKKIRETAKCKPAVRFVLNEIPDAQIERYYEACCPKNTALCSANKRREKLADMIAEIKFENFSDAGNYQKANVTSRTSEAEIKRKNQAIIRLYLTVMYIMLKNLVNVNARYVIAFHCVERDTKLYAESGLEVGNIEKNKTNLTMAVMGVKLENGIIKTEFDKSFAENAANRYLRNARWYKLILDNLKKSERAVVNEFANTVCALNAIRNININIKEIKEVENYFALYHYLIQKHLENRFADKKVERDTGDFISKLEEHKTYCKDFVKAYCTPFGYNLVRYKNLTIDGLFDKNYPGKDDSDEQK

B1: target 3 G3C,C6G (mixed)
RNA 1: CACCCGUGCAAAAUUGCAGGGGUCUAAAACGACCUGAAUAUUUCAGAUCAAA
RNA 2: GGGAAUGGAUCCACAUCUACGAAUUCGUUUUUGAUCUGAAAUAUUGAGCUCUGCAGAUCGGAAGAGCACACGU
B2: target 3 C6A,U7C (mixed)
RNA 1: CACCCGUGCAAAAUUGCAGGGGUCUAAAACGACCUGAAUAUUUCAGAUCAAA
RNA 2: GGGAAUGGAUCCACAUCUACGAAUUCGUUUUUGAUCUGAAAUAUCAAGGUCUGCAGAUCGGAAGAGCACACGU
B3: target 3 insC 3' of 5,insC 3' of 2 (mixed)
RNA 1: CACCCGUGCAAAAUUGCAGGGGUCUAAAACGACCUGAAUAUUUCAGAUCAAA
RNA 2: GGGAAUGGAUCCACAUCUACGAAUUCGUUUUUGAUCUGAAAUAUUCACGGUCCUGCAGAUCGGAAGAGCACACGU
B4: target 3 A5U,C6G (mixed)
RNA 1: CACCCGUGCAAAAUUGCAGGGGUCUAAAACGACCUGAAUAUUUCAGAUCAAA
RNA 2: GGGAAUGGAUCCACAUCUACGAAUUCGUUUUUGAUCUGAAAUAUUGUGGUCUGCAGAUCGGAAGAGCACACGU
B5: target 3 insU 3' of 4,insA 3' of 4 (mixed)
RNA 1: CACCCGUGCAAAAUUGCAGGGGUCUAAAACGACCUGAAUAUUUCAGAUCAAA
RNA 2: GGGAAUGGAUCCACAUCUACGAAUUCGUUUUUGAUCUGAAAUAUUCAGUAGUCUGCAGAUCGGAAGAGCACACGU
B6: target 3 G19U,U20G (mixed)
RNA 1: CACCCGUGCAAAAUUGCAGGGGUCUAAAACGACCUGAAUAUUUCAGAUCAAA
RNA 2: GGGAAUGGAUCCACAUCUACGAAUUCGUUUUGUAUCUGAAAUAUUCAGGUCUGCAGAUCGGAAGAGCACACGU
B7: target 1 C2A,C6G (mixed)
RNA 1: CACCCGUGCAAAAAUGCAGGGGUCUAAAACUGAGCGGAUAACCUCUCUAUGG
RNA 2: GGGAAUGGAUCCACAUCUACGAAUUCGUACCAUAGAGAGGUUAUCGGCUAACCGAGAUCGGAAGAGCACACGU
B8: target 3 insU 3' of 6,insU 3' of 3 (mixed)
RNA 1: CACCCGUGCAAAAUUGCAGGGGUCUAAAACGACCUGAAUAUUUCAGAUCAAA
RNA 2: GGGAAUGGAUCCACAUCUACGAAUUCGUUUUUGAUCUGAAAUAUUCUAGGUUCUGCAGAUCGGAAGAGCACACGU
B9: target 3 G4U,A18G (mixed)
RNA 1: CACCCGUGCAAAAUUGCAGGGGUCUAAAACGACCUGAAUAUUUCAGAUCAAA
RNA 2: GGGAAUGGAUCCACAUCUACGAAUUCGUUUUUGGUCUGAAAUAUUCAUGUCUGCAGAUCGGAAGAGCACACGU
B10: target 3 C1U,U7A (mixed)
RNA 1: CACCCGUGCAAAAUUGCAGGGGUCUAAAACGACCUGAAUAUUUCAGAUCAAA
RNA 2: GGGAAUGGAUCCACAUCUACGAAUUCGUUUUUGAUCUGAAAUAUACAGGUUUGCAGAUCGGAAGAGCACACGU
B11: target 3 del2,del5 (mixed)
RNA 1: CACCCGUGCAAAAUUGCAGGGGUCUAAAACGACCUGAAUAUUUCAGAUCAAA
RNA 2: GGGAAUGGAUCCACAUCUACGAAUUCGUUUUUGAUCUGAAAUAUUCGGCUGCAGAUCGGAAGAGCACACGU
B12: target 3 G4C (mixed)
RNA 1: CACCCGUGCAAAAUUGCAGGGGUCUAAAACGACCUGAAUAUUUCAGAUCAAA
RNA 2: GGGAAUGGAUCCACAUCUACGAAUUCGUUUUUGAUCUGAAAUAUUCACGUCUGCAGAUCGGAAGAGCACACGU
B13: target 3 A9G (mixed)
RNA 1: CACCCGUGCAAAAUUGCAGGGGUCUAAAACGACCUGAAUAUUUCAGAUCAAA
RNA 2: GGGAAUGGAUCCACAUCUACGAAUUCGUUUUUGAUCUGAAAUGUUCAGGUCUGCAGAUCGGAAGAGCACACGU
B14: target 3 insA 3' of 21,insU 3' of 3 (mixed)
RNA 1: CACCCGUGCAAAAUUGCAGGGGUCUAAAACGACCUGAAUAUUUCAGAUCAAA
RNA 2: GGGAAUGGAUCCACAUCUACGAAUUCGUUUUAUGAUCUGAAAUAUUCAGGUUCUGCAGAUCGGAAGAGCACACGU
B15: target 3 C1G,G4C (mixed)
RNA 1: CACCCGUGCAAAAUUGCAGGGGUCUAAAACGACCUGAAUAUUUCAGAUCAAA
RNA 2: GGGAAUGGAUCCACAUCUACGAAUUCGUUUUUGAUCUGAAAUAUUCACGUGUGCAGAUCGGAAGAGCACACGU
B16: target 3 insG 3' of 22,insA 3' of 22 (mixed)
RNA 1: CACCCGUGCAAAAUUGCAGGGGUCUAAAACGACCUGAAUAUUUCAGAUCAAA
RNA 2: GGGAAUGGAUCCACAUCUACGAAUUCGUUUGAUUGAUCUGAAAUAUUCAGGUCUGCAGAUCGGAAGAGCACACGU
B17: target 3 insG 3' of 6,insC 3' of 3 (mixed)
RNA 1: CACCCGUGCAAAAUUGCAGGGGUCUAAAACGACCUGAAUAUUUCAGAUCAAA
RNA 2: GGGAAUGGAUCCACAUCUACGAAUUCGUUUUUGAUCUGAAAUAUUCGAGGCUCUGCAGAUCGGAAGAGCACACGU
B18: target 1 insC 3' of 18,insA 3' of 7 (mixed)
RNA 1: CACCCGUGCAAAAAUGCAGGGGUCUAAAACUGAGCGGAUAACCUCUCUAUGG
RNA 2: GGGAAUGGAUCCACAUCUACGAAUUCGUACCAUACGAGAGGUUAUCACGCUCACCGAGAUCGGAAGAGCACACGU
B19: target 3 insU 3' of 3,insG 3' of 1 (mixed)
RNA 1: CACCCGUGCAAAAUUGCAGGGGUCUAAAACGACCUGAAUAUUUCAGAUCAAA
RNA 2: GGGAAUGGAUCCACAUCUACGAAUUCGUUUUUGAUCUGAAAUAUUCAGGUUCGUGCAGAUCGGAAGAGCACACGU
B20: target 3 insG 3' of 7,insA 3' of 3 (mixed)
RNA 1: CACCCGUGCAAAAUUGCAGGGGUCUAAAACGACCUGAAUAUUUCAGAUCAAA
RNA 2: GGGAAUGGAUCCACAUCUACGAAUUCGUUUUUGAUCUGAAAUAUUGCAGGAUCUGCAGAUCGGAAGAGCACACGU
B21: target 3 insU 3' of 3,insA 3' of 1 (mixed)
RNA 1: CACCCGUGCAAAAUUGCAGGGGUCUAAAACGACCUGAAUAUUUCAGAUCAAA
RNA 2: GGGAAUGGAUCCACAUCUACGAAUUCGUUUUUGAUCUGAAAUAUUCAGGUUCAUGCAGAUCGGAAGAGCACACGU
B22: target 3 U7G (mixed)
RNA 1: CACCCGUGCAAAAUUGCAGGGGUCUAAAACGACCUGAAUAUUUCAGAUCAAA
RNA 2: GGGAAUGGAUCCACAUCUACGAAUUCGUUUUUGAUCUGAAAUAUGCAGGUCUGCAGAUCGGAAGAGCACACGU
B23: target 3 G3C,A12G (mixed)
RNA 1: CACCCGUGCAAAAUUGCAGGGGUCUAAAACGACCUGAAUAUUUCAGAUCAAA
RNA 2: GGGAAUGGAUCCACAUCUACGAAUUCGUUUUUGAUCUGAGAUAUUCAGCUCUGCAGAUCGGAAGAGCACACGU
B24: target 3 C1U,G4C (mixed)
RNA 1: CACCCGUGCAAAAUUGCAGGGGUCUAAAACGACCUGAAUAUUUCAGAUCAAA
RNA 2: GGGAAUGGAUCCACAUCUACGAAUUCGUUUUUGAUCUGAAAUAUUCACGUUUGCAGAUCGGAAGAGCACACGU
B25: target 3 insA 3' of 22,insC 3' of 3 (mixed)
RNA 1: CACCCGUGCAAAAUUGCAGGGGUCUAAAACGACCUGAAUAUUUCAGAUCAAA
RNA 2: GGGAAUGGAUCCACAUCUACGAAUUCGUUUAUUGAUCUGAAAUAUUCAGGCUCUGCAGAUCGGAAGAGCACACGU
B26: target 3 C6G (mixed)
RNA 1: CACCCGUGCAAAAUUGCAGGGGUCUAAAACGACCUGAAUAUUUCAGAUCAAA
RNA 2: GGGAAUGGAUCCACAUCUACGAAUUCGUUUUUGAUCUGAAAUAUUGAGGUCUGCAGAUCGGAAGAGCACACGU
B27: target 3 insU 3' of 3,insU 3' of 1 (mixed)
RNA 1: CACCCGUGCAAAAUUGCAGGGGUCUAAAACGACCUGAAUAUUUCAGAUCAAA
RNA 2: GGGAAUGGAUCCACAUCUACGAAUUCGUUUUUGAUCUGAAAUAUUCAGGUUCUUGCAGAUCGGAAGAGCACACGU
B28: target 1 insU 3' of 14,insU 3' of 9 (mixed)
RNA 1: CACCCGUGCAAAAAUGCAGGGGUCUAAAACUGAGCGGAUAACCUCUCUAUGG
RNA 2: GGGAAUGGAUCCACAUCUACGAAUUCGUACCAUAGAGAUGGUUAUUCCGCUCACCGAGAUCGGAAGAGCACACGU

Target: T1, EsCas13d, nuclease-dead
Assay: crRNA (strand 1, pre-loaded); Mg2+; 40 mM Tris-HCl pH 7.5, 150 mM NaCl, 6 mM MgCl2, 1 mM DTT, 0.1% Tween-20, 0.2 mg/ml BSA; 25 C; 10 min per concentration, then washed
Conditions: tags: His6-TwinStrep-SUMO cleaved; N-terminal SNAP kept (SNAP-Surface 488); label: 3' end held by stalled T7 RNA polymerase

| Binder | Kd |
| --- | --- |
| B1 | 34.2 ± 4.7 nM |
| B2 | 69 ± 9.5 nM |
| B3 | 9.9 ± 1.35 nM |
| B4 | 39 ± 4.5 nM |
| B5 | 22.9 ± 3.25 nM |
| B6 | 33.5 ± 7 nM |
| B7 | 6.03 ± 0.34 nM |
| B8 | 12.9 ± 2 nM |
| B9 | 9.75 ± 1.45 nM |
| B10 | 36.5 ± 15.5 nM |
| B11 | 5.35 ± 0.45 nM |
| B12 | 10.7 ± 1 nM |
| B13 | 29.1 ± 2.85 nM |
| B14 | 46.3 ± 13.7 nM |
| B15 | 16.8 ± 3.25 nM |
| B16 | 41.5 ± 4.5 nM |
| B17 | 17.5 ± 1.3 nM |
| B18 | 29 ± 1.6 nM |
| B19 | 37.4 ± 4.85 nM |
| B20 | 38 ± 5.5 nM |
| B21 | 76.5 ± 19.5 nM |
| B22 | 47 ± 8 nM |
| B23 | 100 ± 33 nM |
| B24 | ~68.5 nM |
| B25 | 15.1 ± 1.55 nM |
| B26 | 20.4 ± 2.3 nM |
| B27 | 96 ± 24.5 nM |
| B28 | 52 ± 9 nM |
